Source: patent publication US20020106690A1 (published 2002)
Where “and” joins values, the source holds several entries; their conditions need not be identical. Equal entries are not always repeated.

Columns and labels:
HA-Ste4p [1] = target: T1, HA-Ste4p (Saccharomyces cerevisiae (yeast), UniProt P18851 1-423); assay: co-immunoprecipitation from yeast extracts, densitometry of Western blots, against untreated cells
T1 sequence (looked up): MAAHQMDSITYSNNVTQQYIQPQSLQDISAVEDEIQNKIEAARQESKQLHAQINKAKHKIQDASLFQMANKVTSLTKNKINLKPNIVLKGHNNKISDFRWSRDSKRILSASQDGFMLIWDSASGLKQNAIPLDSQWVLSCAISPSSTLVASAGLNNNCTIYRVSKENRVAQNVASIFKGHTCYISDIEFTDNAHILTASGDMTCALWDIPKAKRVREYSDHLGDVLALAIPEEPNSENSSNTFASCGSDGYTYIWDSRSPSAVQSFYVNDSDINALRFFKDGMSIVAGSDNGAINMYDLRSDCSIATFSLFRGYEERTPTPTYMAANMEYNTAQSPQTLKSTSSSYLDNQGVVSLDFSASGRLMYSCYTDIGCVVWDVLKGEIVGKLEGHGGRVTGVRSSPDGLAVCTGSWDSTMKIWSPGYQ
Procedure: (A) Time course of pheromone-induced Ste20p binding to HA-Ste4p. HA-Ste4p expressed from the STE4 promoter in cells deleted for STE4 was immunoprecipitated after treatment with […] a-factor. Relative amounts of Ste20p and HA-Ste4p were determined in Western blots (see example in upper and middle panels) and quantified densitometrically (mean values ±SD, n=3) (lower panel). (B) Association of Ste5p with HA-Ste4p expressed from the STE4 promoter in cells deleted for STE4 . HA-Ste4p immunoprecipitates from exponentially growing (−) and pheromone-treated (90 minutes) (+) yeast cells were analyzed with antibodies to Ste5p (upper panel) or HA-Ste4p (lower panel). (C) Overexpression of Ste4p leads to binding to Ste20p. HA-Ste4p was overexpressed from the GAL1 promoter in cells deleted for STE20 (lane 1) or STE4 (lanes 2 and 3). HA-Ste4p expression was suppressed in glucose-containing medium in cells deleted for STE4 (lane 4). Immunoprecipitates obtained with antibodies to Ste20p (lanes 1 and 2) or the HA-epitope (lanes 3 and 4) were analyzed for the presence of Ste20p (upper panel) and HA-Ste4p (lower panel). (D) Coimmunoprecipitation of HA-Ste4p and Ste20p truncation mutants. […] HA-Ste4p (lanes 1 and 2) and Ste20p (lanes 3 and 4) immunoprecipitates were analyzed for the presence of Ste20p (upper panel) and HA-Ste4p (lower panel) by Western blot analyses. […]

Ste4p, P18851 = target: T2, Ste4p, P18851
T2 chain: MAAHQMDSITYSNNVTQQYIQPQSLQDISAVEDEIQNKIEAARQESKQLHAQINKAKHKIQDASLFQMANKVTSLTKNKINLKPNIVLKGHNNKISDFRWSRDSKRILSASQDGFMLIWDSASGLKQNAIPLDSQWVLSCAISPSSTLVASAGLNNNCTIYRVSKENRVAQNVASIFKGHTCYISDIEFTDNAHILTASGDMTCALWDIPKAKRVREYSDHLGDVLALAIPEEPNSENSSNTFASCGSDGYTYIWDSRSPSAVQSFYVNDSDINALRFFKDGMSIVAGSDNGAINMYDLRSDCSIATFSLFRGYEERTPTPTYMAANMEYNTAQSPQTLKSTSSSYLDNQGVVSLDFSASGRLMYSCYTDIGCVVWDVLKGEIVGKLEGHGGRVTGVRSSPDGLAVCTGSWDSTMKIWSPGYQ

HA-Ste4p [2] = target: T1, HA-Ste4p; assay: co-immunoprecipitation from yeast extracts, Western blot
GST-Ste20p FL = target: T3, GST-Ste20p FL (Saccharomyces cerevisiae (yeast), UniProt Q03497 1-939); assay: GST pull-down of in vitro-translated HA-Ste18p
T3 construct: Purified on glutathione-Sepharose beads; also called GST fusion with full length Ste20p; not shown: glutathione S-transferase (GST), amino-terminal fusion partner
T3 sequence: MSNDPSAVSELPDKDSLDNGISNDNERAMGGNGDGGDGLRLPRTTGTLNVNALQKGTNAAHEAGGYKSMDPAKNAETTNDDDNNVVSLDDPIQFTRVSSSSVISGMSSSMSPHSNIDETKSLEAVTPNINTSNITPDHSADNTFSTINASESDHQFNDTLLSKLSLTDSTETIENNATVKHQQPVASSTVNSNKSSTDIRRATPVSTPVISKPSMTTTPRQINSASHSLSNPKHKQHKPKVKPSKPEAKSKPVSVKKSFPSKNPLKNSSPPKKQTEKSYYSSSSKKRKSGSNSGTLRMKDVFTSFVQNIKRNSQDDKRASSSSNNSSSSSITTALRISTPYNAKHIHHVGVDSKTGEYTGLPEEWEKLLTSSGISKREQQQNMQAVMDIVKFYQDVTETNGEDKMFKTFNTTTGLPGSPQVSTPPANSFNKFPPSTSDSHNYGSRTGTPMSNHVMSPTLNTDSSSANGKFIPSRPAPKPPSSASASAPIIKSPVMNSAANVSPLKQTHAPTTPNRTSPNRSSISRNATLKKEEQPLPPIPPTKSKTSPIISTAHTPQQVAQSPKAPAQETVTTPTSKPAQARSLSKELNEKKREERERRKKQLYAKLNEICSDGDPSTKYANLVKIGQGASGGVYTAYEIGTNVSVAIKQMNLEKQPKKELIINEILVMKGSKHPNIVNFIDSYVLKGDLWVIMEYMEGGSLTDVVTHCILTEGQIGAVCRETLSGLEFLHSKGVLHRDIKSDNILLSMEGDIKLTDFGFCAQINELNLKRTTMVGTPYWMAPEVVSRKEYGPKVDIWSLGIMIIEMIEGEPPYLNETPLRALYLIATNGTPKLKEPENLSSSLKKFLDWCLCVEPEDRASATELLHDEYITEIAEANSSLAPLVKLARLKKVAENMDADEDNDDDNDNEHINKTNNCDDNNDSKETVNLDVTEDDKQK

B1: Ste20p (enzyme)
chain: MSNDPSAVSELPDKDSLDNGISNDNERAMGGNGDGGDGLRLPRTTGTLNVNALQKGTNAAHEAGGYKSMDPAKNAETTNDDDNNVVSLDDPIQFTRVSSSSVISGMSSSMSPHSNIDETKSLEAVTPNINTSNITPDHSADNTFSTINASESDHQFNDTLLSKLSLTDSTETIENNATVKHQQPVASSTVNSNKSSTDIRRATPVSTPVISKPSMTTTPRQINSASHSLSNPKHKQHKPKVKPSKPEAKSKPVSVKKSFPSKNPLKNSSPPKKQTEKSYYSSSSKKRKSGSNSGTLRMKDVFTSFVQNIKRNSQDDKRASSSSNNSSSSSITTALRISTPYNAKHIHHVGVDSKTGEYTGLPEEWEKLLTSSGISKREQQQNMQAVMDIVKFYQDVTETNGEDKMFKTFNTTTGLPGSPQVSTPPANSFNKFPPSTSDSHNYGSRTGTPMSNHVMSPTLNTDSSSANGKFIPSRPAPKPPSSASASAPIIKSPVMNSAANVSPLKQTHAPTTPNRTSPNRSSISRNATLKKEEQPLPPIPPTKSKTSPIISTAHTPQQVAQSPKAPAQETVTTPTSKPAQARSLSKELNEKKREERERRKKQLYAKLNEICSDGDPSTKYANLVKIGQGASGGVYTAYEIGTNVSVAIKQMNLEKQPKKELIINEILVMKGSKHPNIVNFIDSYVLKGDLWVIMEYMEGGSLTDVVTHCILTEGQIGAVCRETLSGLEFLHSKGVLHRDIKSDNILLSMEGDIKLTDFGFCAQINELNLKRTTMVGTPYWMAPEVVSRKEYGPKVDIWSLGIMIIEMIEGEPPYLNETPLRALYLIATNGTPKLKEPENLSSSLKKFLDWCLCVEPEDRASATELLHDEYITEIAEANSSLAPLVKLARLKKVAENMDADEDNDDDNDNEHINKTNNCDDNNDSKETVNLDVTEDDKQK
notes: Full length Ste20p in yeast cells (endogenous, or from pDH166 / pSTE20-5); also called STE20^WT; wild-type Ste20p
- fold increase in the interaction after pheromone treatment (HA-Ste4p [1]): ~5 fold
- FUS1::lacZ expression (Ste4p, P18851): 274
- FUS1::lacZ expression, Basal (Ste4p, P18851): 0.1
- FUS1::lacZ expression, Induced (Ste4p, P18851): 221
- G1 arrest (Ste4p, P18851): +
- Mating efficiencies (%) (Ste4p, P18851): 72.7% and 89.8%
- Shmoo formation (Ste4p, P18851): +

B2: Ste20p^495-877 (enzyme)
chain: MNSAANVSPLKQTHAPTTPNRTSPNRSSISRNATLKKEEQPLPPIPPTKSKTSPIISTAHTPQQVAQSPKAPAQETVTTPTSKPAQARSLSKELNEKKREERERRKKQLYAKLNEICSDGDPSTKYANLVKIGQGASGGVYTAYEIGTNVSVAIKQMNLEKQPKKELIINEILVMKGSKHPNIVNFIDSYVLKGDLWVIMEYMEGGSLTDVVTHCILTEGQIGAVCRETLSGLEFLHSKGVLHRDIKSDNILLSMEGDIKLTDFGFCAQINELNLKRTTMVGTPYWMAPEVVSRKEYGPKVDIWSLGIMIIEMIEGEPPYLNETPLRALYLIATNGTPKLKEPENLSSSLKKFLDWCLCVEPEDRASATELLHDEYITEIAEA
notes: Overexpressed from the GAL1 promoter (pDH171) in cells deleted for STE20; also called STE20^495-877
- binding result (HA-Ste4p [2]): no binding
- FUS1::lacZ expression, Basal (Ste4p, P18851): < 0.1
- FUS1::lacZ expression, Induced (Ste4p, P18851): < 0.1
- G1 arrest (Ste4p, P18851): -
- Mating efficiencies (%) (Ste4p, P18851): 0.02%
- Shmoo formation (Ste4p, P18851): -

B3: HA-Ste18p (other, Saccharomyces cerevisiae (yeast), UniProt P18852 1-110, looked up, not shown: small tags and cut ends)
chain: MTSVQNSPRLQQPQEQQQQQQQLSLKIKQLKLKRINELNNKLRKELSRERITASNACLTIINYTSNTKDYTLPELWGYPVAGSNHFIEGLKNAQKNSQMSNSNSVCCTLM
notes: In vitro-translated from pBTL65; also called in vitro-translated HA-Ste18p; γ-subunit of the mating response G-protein
- binding result (GST-Ste20p FL): no binding
